Measured values reported in the supplement of paper PMC7125110.
± gives the standard error. Fewer inactive variants are shown than the library holds.

B1: glmS ribozyme (parent)
chain: AUAAAAGCGCCAGAACUACAGAAAUGUAGUUGACGAGGAGGAGGUUUAUCGAAUUUUCGGCGGAUGCCUCCAAA

Variants of: B1
Assay: self-cleavage kobs at 2500 uM GlcN6P; higher = faster cleavage; RNA array
Conditions: with glucosamine-6-phosphate
How it was run: (§1)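 Glucosamine-6-phosphate, from 40 μM to 10 mM in HEPES/KCl/Mg(OAc)2 buffer, was flowed over sequenced MiSeq chips carrying barcoded ribozyme variants transcribed in situ by E. coli RNA polymerase. A hybridised Cy3 probe tracked the variants at 37 °C as tiles were imaged over ~14 h. kobs, kcat and KM were obtained by fitting normalised per-tile medians to exponential decays and then applying weighted Michaelis–Menten fits across concentrations.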

Row | Variant | self-cleavage kobs at 2500 uM GlcN6P [s⁻¹]
1 | G29C A53C C67U | 0.000153 ± 4.1e-05
2 | G38A A39U G43C A48U U55C C70A | < 1e-05
3 | A14C A39U G41U U65G | < 1e-05
4 | G32C A48U C68U | < 1e-05
5 | G29C A33U G38C U56A C71U | < 1e-05
6 | A14U C67A C71U | 0.000265 ± 5.2e-05
7 | G13A U30G U56A | 7.43e-05 ± 2.5e-05
8 | C16G U31G A42G | 0.000761 ± 0.0003
9 | U46C G60C C61U | < 1e-05
10 | C10G G41U G59C G60C | < 1e-05
11 | A39U G41U U46A | 4.67e-05 ± 1.4e-05
12 | G9C A48G C67U | < 1e-05
13 | C34A G35U U55G | < 1e-05
14 | A36G A48U A64C | < 1e-05
15 | G7U C11U G13C A36U U56A | < 1e-05
16 | G7A C67A U69A | < 1e-05
17 | A42C G51A A64U C68G | < 1e-05
18 | G13U A42C U69A | < 1e-05
19 | G40U C50G G62A | < 1e-05
20 | G7U A14C C16A | < 1e-05
21 | C11A A12U G40U | 4.18e-05 ± 2.1e-05
22 | A14U C16G U65A | 5.56e-05 ± 1.9e-05
23 | A33U A48U G62U | < 1e-05
24 | G29A A36G G38U C50U | < 1e-05
25 | A36G G40C G59U | < 1e-05
26 | C8U C16U G37C A39G U54C | < 1e-05
27 | G43A G44C U54G | < 1e-05

Row | Variant | self-cleavage kobs at 2500 uM GlcN6P [s⁻¹]
28 | G29A U55A C67U | 0.000242 ± 4.9e-05
29 | A15U G44C A64G | < 1e-05
30 | G40A U46G U47G | 0.000358 ± 0.00012
31 | A39G G41U C68G | < 1e-05
32 | A14G C58U G66U C67G | 7.46e-05 ± 3.2e-05
33 | A6U G32C C34U | < 1e-05
34 | G32C A33U G40U | < 1e-05
35 | U57C U69C | 6.42e-05 ± 2.1e-05
36 | G35C G40U G51A U65G | < 1e-05
37 | G44C U55C C70G | < 1e-05
38 | G29C C50U C68A | 7.07e-05 ± 2.7e-05
39 | A33G G35A A36C G41A C61G C68G | < 1e-05
40 | A33G U46G C70U | < 1e-05
41 | G7U G9U U31C U56C | < 1e-05
42 | A12G G32C A36U | < 1e-05
43 | C16U G32C U54C | 5.6e-05 ± 2.1e-05
44 | A12U G35A A52C C58G C68G | < 1e-05
45 | G32A U45C A52G | < 1e-05
46 | C10A G13U U56C U69G | < 1e-05
47 | C34U G40A U57A | < 1e-05
48 | C34A G38U G40A G44C U55C C70G | < 1e-05
49 | A14U G32A G38U C50G C71G | 0.000179 ± 3.5e-05
50 | A12G G41A C50A | < 1e-05
51 | G32A G35A C61A G63A C70U | < 1e-05
52 | A14G C16A U45C G66C | 0.000167 ± 3.4e-05
53 | A12U U56A C68A | 6.47e-05 ± 1.9e-05
54 | A15C U31C G41C U57G | < 1e-05

Row | Variant | self-cleavage kobs at 2500 uM GlcN6P [s⁻¹]
55 | A42U G66A | 7.23e-05 ± 2.1e-05
56 | C8U G43C A52U C70U | < 1e-05
57 | A6U G13A G35C A52C | < 1e-05
58 | C10U A33U G40C C50U | < 1e-05
59 | G37U A42U U54G U57A C67A | < 1e-05
60 | G35A C61U | < 1e-05
61 | G29C G59U G66C C70A | 0.000112 ± 2.7e-05
62 | U30G G43U U47A U56A | < 1e-05
63 | A33C G35A G38C A52U U65C C68G | < 1e-05
64 | U30G C34A G60U | < 1e-05
65 | G40U A42G C70U | 0.00344 ± 0.00066
66 | C8G C11A G43A | < 1e-05
67 | A36U G59C G63U | < 1e-05
68 | C16A C34A U65A | < 1e-05
69 | A12G A53G U69C | 0.000297 ± 0.00012
70 | A33G G59C C68U | < 1e-05
71 | A42U C61G U69G C70A | < 1e-05
72 | C10U G26A | 7.4e-05 ± 2.8e-05
73 | U45G U57A | 5.34e-05 ± 1.2e-05
74 | G43C G66U C67A | 0.000168 ± 5.2e-05
75 | U31C G38U A53U | < 1e-05
76 | A15U C16G A33U U49C | < 1e-05
77 | G37U G66U C68G C71G | 4.28e-05 ± 2e-05
78 | A6U C50U C68G C71A | 8.39e-05 ± 3e-05
79 | C10A G29C A42G U55C U56C C70U | < 1e-05
80 | A14C G29U A53G U65G | 6.14e-05 ± 1.8e-05

Variants of: B1
Assay: self-cleavage kobs at 10000 uM GlcN6P; higher = faster cleavage; RNA array
Conditions: with glucosamine-6-phosphate
How it was run: as §1

Row | Variant | self-cleavage kobs at 10000 uM GlcN6P [s⁻¹]
81 | A14C A39U G41U U65G | < 1e-05
82 | U46C G60C C61U | < 1e-05
83 | A39U G41U U46A | 0.000135 ± 2.6e-05
84 | C11A A12U G40U | 6.34e-05 ± 1.6e-05
85 | A33G U46G C70U | < 1e-05
86 | A42U G66A | 0.000114 ± 2.5e-05
87 | C16A C34A U65A | < 1e-05
88 | U45G U57A | 9.86e-05 ± 1.3e-05
89 | C10A G29C A42G U55C U56C C70U | < 1e-05
